Laboratory results from a protein production outcome set (Wang et al. 2014).

assay: label from the status in PepcDB records
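Further: failed if final PepcDB status was selected cloned or expressed and not failed if soluble or beyond.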

| Sequence | protein production |
| --- | --- |
| MLTFIVVNYNGEKYLKECLNSIINQTYRKLRVLVIDNGSTDGSRDILRNFEDYYSRFEVIRNEENLGFAKAANQGIEMANTKFVALVNNDAFLERNWAEEMLKAADDLRAGIFASKILFEDGRINSAGHAIHRGLAVMERGFLEKDEGQFDEPCYVAGACAAAAMYRRSLFEDVGLFDEDYFMYNEDVDLSLRALIRGWKILYVPTAIAYHLHSASTGFLSDFSVYYNSRNWVWSVVKNVPRDLLLREFPYFILRNFSSMLFFCLRGNFAILKSKIDAIRELRKFLEKRREVQQKVRFKAVEDYIEGLGFGKALKVARLAGVLR | failed |
| MLTHREYFNSKADIWDSLCAPEEKAKLETIIRGLNIAPGSTVLDVGCGTGILIPYLLAAVGPAGRIVALDIAEAMLERAQSKGFPANVEFICADVVSVPYPDATFDEVICNSAFPHFPHKLKALKEMARVLKPGGRVVICHTKARETINNLHRSLGGVIAGDQIPPGSEMMGMLVAAGLTGIEIDEALDYYLASGFKAMYE | failed |
| MLTLILAQVTTLDPARPQAEAVLAGGGRVLAVGTREELSALAPRAEVLDHRDLHLTPGLCDAHTHLVMYGASLSQLDVQGVRSVDEVRARLRERAAQTPAGEWIVGGGFLLSELGLSGYPTAADLDAVSPDHPVLLHSRDHHMIWVNSRALAAAGIHDQTPDPEGGHIVHPLGCLQENAQALVSERVPAPSESEWLAHARAGAQDLAARGYVSTHTMAFEDAAAPLALQTLAARGELPLRVWACLPHERLSAARSLGLSRVPGGLFQWGGVKFFADGALGSRTAWLHAPGFADGSGTGIALDSPDLILERGREALRLGLTPVTHAIGDRANTEVLDVYEQLRPEAEARGIRLRVEHAQHLRPEDLPRFRGLTASVQPVHLPADAAMIRELLPQREQTSYAFRSLKDAGAILAFGSDAPVAPPSVQGNFAAAVSRLGDDGLPLAPAEALTPDDVLWAYTRGPALAAGWDDEGWVKPGARAAFTLWNTIGGEARSLVL | failed |
| MLTNIERAKLQLIDETNDMVIITKAEPLDAPNGPEVVWVNKAFENISKYKANEIIGQTPRILQGKETNQNTLKMIKEALKAQTNINVDLLNYTKDGTPYWISFSIVYLRDGQGNLCYLGAIEKDITALKNLNFKLSEKAKTDPLTNVYNQENFFIAGNEAIKNFHQNQEAVGLLFFDVDDFKGINDTQGHIYGDMILKKVAQESLKLVRKTDNVFRYGGDEFAIIFSGIDVKILERKAQQLQKKLAKSHISVSIGGTISIQSDKSINTLLARADEALYYVKANKKGLFFIAE | failed |
| MLTPVADGVLVHQSELLRNNTVVVRGESGVLIVDPGLTTGEMGCLAEDLRQLGQPVVAGFATHPDWDHALWHADLGDVPRYGTARCSAYLRELRSEEGWQARVAEGLPPEIADETPLELFGLIVGLPAGAELIPWNGPEVRVIEHPAHAPGHAALLVEDRGVLVAGDMLSDLFVPMLDDTEHPVEDYLTGLRLLEKVADDVEVLVPGHGSVATADQVQVRIGRDREYLHALRDGRAPDDPRLGSSVEPGWEWVNDIHEGQAARMARRSERNGADG | failed |
| MLTTLSCCCNMPVVKVNCWNNMKVQIKSITQWGGVLLLSFSSCYVNANKLIKPNILFIAVDDLKPLIRDYGTAKVQTPNIDKLASQSTVFTRAYSQYPVCGPSRMSILTGLRPESNGIMNLKDKIRDVNPSVITLPQFFKNNGYETAATGKIFDPRNTTSRSEEEVLSWSIPYQRPKHGLKGKTRLAVESIDEPDEKFVDGGILKRGKKLLKQMANKNKPFFLAVGFKKPHLPFVAPKKYYDLYSRESFDLASYQSAPEDADTTYLFHKNQELRGYKPTPIKGGEIKPYPKGKLSSAHQKELLHGYFASVSFIDSLVGELLEELEKTGQAENTVIVFWGDHGFHLGDHGLWGKHTTMEQANHVPLIIKIPGSKANRYAKPVELLDVFPSLTEAAGLSIPNNLQGTSLVSLVTGKLKSIDKVAISQYKRKGAYGYSMRTEQYRYTQWVTPSGKVVYRDLYDLINDPLETKNIINTPEGKLLEVELNKQLHTNSAGLKRLKLEHHHHHH | failed |
| MLTTQITQTYHLTTPIISAGMAFVATPKLAAAVSNAGGMGTFSAFMSPPEELRALIRQTRSLSDRPFGIDFITAAANDDHIAICMAERVPVVIFFWSFPPLDWVTQLQNAGVKVWMQVGSLAEATQAKAQGFDAIIAQGQEGGGHNRSEASIFSLLPAICREVAPIPVIAAGGIIDGRGLVAALALGAEAVWCGTRFLASEEAYAHPEYKARVVTATVGDTTRTTLFGPEMPGQLMRVLRNLAVNQWGDRVADATKHGPTQPAIGSTILGGQALPMPKFSAILPTPDTSGDFEEMCLTAGESSGNITAIKSARDILWEMENEALDLLTYRLQAITKEQNLMAAG | failed |
| MLTVDQLALLFVLLLGAVVSVPVGDRFGLPAPVLMTLLGIGLAVADFVPNVDIPPDLILPALLPPLLYAAVRRTSWRQFTANKRPIFLLAVALVFVTTAVVALVAGAIVPGLPIAAAVALGALVAPPDPVAATAVAGQLGLPRRLVSILEGEGLFNDVTAIVLYHVAIAAAVSGTFSLPNAVLDLVLSAVVAVAVGLALGWAANRLMDLLDDVTLQIGLTLLVPYASYVLAEELHGSGVLAVLTTALFLAEYATDADDVMTRLAGHTFWNVVDTLVTGVAFGLIGLELHNALRTASGRWGEMLGWAAAIVAVVVLVRLAYLLPATWLTKRLHAKRDYDEEIPTSWRETVVMWWAGMRGVASAALALAIPLKMDDGSPFPDRDEIVFIAFGVIMGTLVLQGLTLPWLVKRLGVRADTGSEKAFEKALAIRAAKAAKRRLREIEDVEELPEELSEQLLRRAFDIGARISPDLGDEERREAHEQRVRRMKRVRRIQGEMMSAARHEVLAARSEPGADPEIVDRVLRHLDVRSLR | failed |
| MLTYFHPDQSLHHPRTYFSRGRMRMPQEVPERAARLVAAAFAMGFPVREPDDFGIAPIAAVHDTHYLRFLETVHREWKAMPEDWGDEAMSNIFVREPNALRGVLAQAARHLADGSCPVGEHTWRAAYWSAQSALAAAAAVRDGAPAAYALCRPPGHHARVDAAGGFCYLNNAAIAAQALRARHARVAVLDTDMHHGQGIQEIFYARRDVLYVSIHGDPTNFYPAVAGFDDERGAGEGLGYNVNLPMPHGSSEAAFFERVDDALRELRRFAPDALVLSLGFDVYRDDPQSQVAVTTDGFGRLGHLIGALRLPTVIVQEGGYHIESLEANARSFFGGFGALRG | not failed |
| MLVCAAFSGGAGASDAGALLEAARRGDTAQVASLLERKVEVDAPSADGSTPLLLATANDHLAVARQLIEAGADVNRQNSRLDSPYLLAGAEGRLEILRLTLLHGADLKSTNRYGGTALIPACERGHVEVVKTLLQAGVDPNHVNKLGWTGLLEAILLSDGGPRHQEIVRLLIDAGADVNLADADGVSPLAHARQRGQGGIERLLLAAGAQ | failed |
| MLVESFNPFNNLLLSSIVAAIPIILFLLCLTVFKMKGVYAAITTLIVTIIVAMAFFKLPGSIAGGATLEGFYQGIIPIGFIVIMAVWLYKIATKSGQFAIVQDSIASVSRDQRVQLLLIGFVFNGFLEGAAGFGVPIAICAVLLTQLGFKPLQAAMYCLVSNAAAGAYGAVGIPIAIVDTLNLPGGVTTSQVALIGNLTLGFISFVVPFLLMYIMDGFKGVKETFPATLVVAVTFTVLQVLIAAFAGPELADIIPGLVAMIALALFSKKWQPKNIFRINKDEKADAVPKHSIGHITYAWSPFIILTIVVMIWSLPAFKGLFEKGGALSALVVNFNVPGTMNAVTNKPNELTFNFFAQTGTAILITAIITIIIAKNMSFKTAGHLLGLTVKELWISVLTICFILAVSKITTYGGLSNAMGQGISKTGAAFPLLSPLLGWIGVFMTGSVVNNNSLFAPIQASVAEQIGTKGSLLVAANVAGGVTAKIVSPQSIAIATAAVNKVGKESELMKMAMRFSIGLLILVCIWTFICSLFIS | failed |
| MLVMKCSKCSAEAIYYAKYNGLYLCRDHFNEMIEGRVKKEIRKQVEFHGDDVTISVALSGGKDSSVTLFLLHKILGNRKNMKIKAFTVDEGIDGYRPSGLESAKRLCTSLGIDHETISFYDSYGLTLDSIVKTNPVKIPCAYCGPLRRKLINEMADKQDADYVALGLNLDDYSQSILMNVAKGDFDRFIRMSPQTDRKVGLVRRIAPLRTILEKEVVLYAVTNDIPFDSSWCPYYSRAQRNVFREVVNKLSEENPSTKFAILKFFDRVRENITTGHEEVKLKRCKICGAPTERDVCTACSSLQEVNEMMAEH | failed |
| MLVPLPVREIMRTPVKTISPSAPVIEAAQRLRDEDIGSLVVEDDGSCVGIITESDIVAVTAAEGDTRALSVGDVMAETLVTVAPDADMQAAVDRLQTNNIKKLPVVEDGSLVGIVTTTDLSDYIPHLSRAVRMSNDQSQQKRFTRPDTLYENEDWTFESYGTADGIDVGDHVEFSKTISKADVEAFAEASGDTNRLHLDATFADGTRFGRRIVHGTLVSGIISAALARLPGLTIYLSQELSYQGPVDIDEEVTARCEVVERIQDNRFRLATAVDDSEGNCVIEGDAVVISDPIPDTA | failed |
| MLVRNICKFTQVMGRFRVVVNPRDYCHLAPLKRSRYHQRSEFGCRPLCSNAAGYEVSWAAPPASGSSGGMFWAFSAAFTLNLFGGADEKEETPEEKLIKTIKRSILCIQREQYDKAEQMLHLALRMAQDIQSKDGITYVFDLMANLAMEREQFKKAEKIFTDVMKRLFAEGHTEESPKILHISSKIAHMSQLQGDLEKSFQGFTWTLQQLAKLLEKMPDDKDILELYGLTKNWFGQLLMKQGKYLEAKNLFKEAFDTLINVYGAVNDASVTILNNISVAYVNLEKYAEARETLLEAMELTKELKDATQEGILQANLGLVYLREGLMSQAENACRLAWKLGKQHQNPDAVEQAEYCLNEIKTTLNGEKRQ | failed |
| MLVVAVVFPVLAFIFLGGVVFYTRKQNKPKNKRAASVEVDENNEDGVKVNNSELKKLTKIKKIKGSKIYLKNGAIRVNLGISSPDFELLTDEEQTSFEDCLMMSALSLNFPVQFHTTLKKIEIKEPAELVEKTMNSSDSLISDNLRDYCSQLYSSYKKLEHEKGIFVRKSFCTVGAYLPDRDEKKVLNELQSRIDNIAGGLSRARMKINLLNSESTAQILADLFNRGKNIKIETLEKDGAFDLYSEGVGQVVEVQEG | failed |
| MLYFEDLRPGQLFLSAEHTLSEQEIIAFARQFDPQPFHTDPEAARQTFFNGLAASGWHTSSLSMRLVAESELGRAANGLIGMQIDKMRWPQPSRPGDTLQVEVEVLDKRRSSSQPGFGVVKVSWTTRNQRGETAMQLECAIWLQCRSKAEAAAPELAGAK | failed |
| MLYHLVMLEPEGEGAMDRIMEAMAILDGLAPELPGLTEFRHGPNRDFEQKSERYPYGFLCTFTDKAALDAYAVHPTHQRAGGMLVASCRNGADGILVVDLEV | not failed |
| MLYLFPLLAVVIWAGNAIVNKLSFGIIAPEAIAFYRWFFAMLILTPFMLKSVWKNRRRIIPLLPKLATLASLGMVLNQSLAYFAAATTTATNMALINSLVPMISLFLAVPLLKQRLSPLVLGGSVISLLGLVFMLSHGDIANLAIGVTEGDLLLLISAFVYALYGVLLKRWQLPISTWESVYIQGIIAVLMLTPLLFSAPSIAISSQATPLIVYAAFGASLIAPWAWINGINKLGAERTSIFFNLMPILAAIFAAIILNETLAIYHYLGGTMVILGVMLVQIKPKPKTTTIITCAE | failed |
| MLYNSYMLLTYQFKLNPTSEQVVILETWGELLRRHWNYALGERLDWLRRTRSLLDRCSLVSEPIGGIPDKPDYYTQASDLQQTKDLFPDYKNIYADCQQQNLMRLDKAWKRWLIPDKKGNRGGKPRFKKRGDISSFTFPRVNSPKAGAHLTGNILKLSKIGEIEVILHRPIPNGSEIKQATILSKSDGWYVSFSLEDKTVPELLPIDEIKTATGIDVGLEKFLTTAHGQSIEVPQYSRKTQSKLARQQRKLARKIHGSKNYQKQASRVARIHLHVARQRKEFHYQVAHWLVKSYDLIVFENLNIRGLARTRLAKSILDVAWGAFLQIMQAVAVRRGKHTRGVDPRGTSINCSGCGQRVEKTLAVRVHNCSCGLVIDRDWNSAINLLNYGSVGLPIPGCGGLGVSQPVKQQVSYVNLRCSRYTACS | failed |
